This note sets out measurements from PMC2928749, “Understanding the Role of the Josephin Domain in the PolyUb Binding and Cleavage Properties of Ataxin-3” (PLoS ONE, 2010).

Experiment [1] has as its target T1, K63-linked diUb (made from UbD77 and UbK63R) (UniProt P0CG47 1-76; P0CG47 1-76, UbD77 | UbK63R, K63-linked to the other Ub (isopeptide bond between K63 and G76) | K63-linked to the other Ub (isopeptide bond between K63 and G76)).
T1 construct: ubiquitin, mutant UbD77; ubiquitin, mutant UbK63R; By the usual protocol G76 of UbK63R is joined to K63 of UbD77; also called K63-linked diUb chains; K63-diUb; source: recombinant Ub mutants joined with E1, Ubc13 and Uev1a by the same protocol, purified on a monoS cation exchange column; copies: 1 + 1
Put plainly: NMR titration; 15N-labelled Josephin (C14A) 0.05 mM in 20 mM sodium phosphate pH 6.5, 2 mM DTT, 298 K, 600 MHz; stepwise additions of unlabelled K48- or K63-linked diUb up to 10 and 2.5 fold molar excess; chemical shift perturbation. The following applies: both partners purified.

The target in experiment [2] is T2, K48-linked diUb (made from UbD77 and UbK48C) (UniProt P0CG47 1-76; P0CG47 1-76, UbD77 | UbK48C, K48-linked to the other Ub (isopeptide bond between K48 and G76) | K48-linked to the other Ub (isopeptide bond between K48 and G76)).
T2 construct: ubiquitin, mutant UbD77; ubiquitin, mutant UbK48C; also called K48-linked diUb chains; K48-diUb; copies: 1 + 1
The experiment is described as above. The following applies: both partners purified.

B1: Josephin domain of ataxin-3 (amino acids 1-182), C14A mutant, 15N labelled (domain or fragment, UniProt P54252 1-182, looked up)
chain: MESIFHEKQEGSLAAQHCLNNLLQGEYFSPVELSSIAHQLDEEERMRMAEGGVTSEDYRTFLQQPSGNMDDSGFFSIQVISNALKVWGLELILFNSPEYQRLRIDPINERSFICNYKEHWFTVRKLGKQWFNLNSLLTGPELISDTYLALFLAQLQQEGYSIFVVKGDLPDCEADQLLQMIR
modifications: 15N labelled
notes: ataxin-3, N-terminal catalytic Josephin domain, amino acids 1-182; catalytic cysteine mutated so that no cleavage could occur; The methods speak of titrations of 15N Josephin or of the C14A mutant; the results say that C14A was used; also called isolated Josephin domain; C14A Josephin mutant; source: E. coli BL21(DE3), purified as previously described [35]; grown in synthetic medium with 15NH4Cl
B1: the binding result in experiment [1] and in experiment [2] was “binds” in each case.
